Assays:
α-chymotrypsin (bovine) [1] = target: α-chymotrypsin (bovine)
α-chymotrypsin (bovine) [2] = assay: enzyme inhibition kinetics
α-chymotrypsin (bovine) [3] = target: α-chymotrypsin (bovine); remark: listed apart in the source
α-chymotrypsin (bovine) [4] = target: α-chymotrypsin (bovine); remark: listed apart in the source

Substance | stoichiometry of inhibition (SI), residual chymotrypsin activity against the molar ratio [I]/[E] (α-chymotrypsin (bovine) [1]) | Ki (α-chymotrypsin (bovine) [2]) [nM] | inhibition rate of α-chymotrypsin enzyme activity at 200 nM serpin (α-chymotrypsin (bovine) [3]) [%] | k3, rate constant of the irreversible inhibition of α-chymotrypsin (BTEE hydrolysis, 256 nm) (α-chymotrypsin (bovine) [4]) [s⁻¹]
Trichinella pseudospiralis serine protease inhibitor (Tp-serpin) (natural protein) | 1.19 | 47.9 | > 80 | 0.00235
Trichinella spiralis serine protease inhibitor (Ts-serpin) (natural protein) | 1.21 | 49.2 | > 80 | 0.00247

Reference: paper PMC11905679
